Assay results published in patent publication US20230038883A1, “SPECIFIC HOST FACTOR OF HEPATITIS B VIRUS INFECTION, AND USE THEREOF” (priority 2020, published 2023).

T1: SCARF2 EGF4-6 proteins (Homo sapiens, UniProt Q96GP6)
T1 construct: Precision (protease site) tag (internal); human Fc tag (IgG1) (C); made in house; host or cells: 293F cells (pCAGGs vector), purified with Protein A beads
T1 sequence (Q96GP6 183-270): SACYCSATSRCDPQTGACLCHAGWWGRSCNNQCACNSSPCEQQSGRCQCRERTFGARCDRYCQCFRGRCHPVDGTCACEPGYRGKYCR


How the values were obtained:
[1] = biological target: polypeptide containing amino acids 69-108 of preS1 (peptide^69-108) (hepatitis B virus); assay: ForteBio Octet; sensorgrams at 200, 100, 50 and 25 µg/mL
Chain of polypeptide containing amino acids 69-108 of preS1 (peptide^69-108) (hepatitis B virus) (P03138 69-108): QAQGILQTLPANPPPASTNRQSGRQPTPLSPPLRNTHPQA

[2] = biological target: polypeptide containing amino acids 69-108 of preS1 (peptide^69-108) (hepatitis B virus); assay: ForteBio Octet (BLI), biotin-labeled peptide
SCARF2 EGF4-6 proteins = biological target: T1, SCARF2 EGF4-6 proteins; assay: immunoprecipitation of biotin labeled preS1 polypeptides with SCARF2 EGF4-6; format: binding
Text: Compared with SVPs, the virus particles were rich in L protein, and the main functional segment of L protein was the preS1 segment; it was therefore speculated that the SCARF2 EGF4-6 proteins interact with the preS1 segment of the L protein of the virus. […] The C-terminus of each of the synthesized peptides was biotin labeled.

HBV [3] = assay: HBV infection of HepG2-NTCP cells transduced with CREBH and truncated forms (ELISA, HBcAg staining); format: cell-based; conditions: transduced before infection; for HBV infection efficiency (ELISA): 1% PEG and 5% PEG, compared with PWPI-B empty control
Procedure: HepG2-NTCP cells were transduced with lentivirus embedded with CREBH and truncated forms thereof. After 24 hours, the cells were re-seeded in a culture plate, and the culture medium was changed to PMM. After 24 hours, the cells were infected with HBV in the presence of 1% PEG and 5% PEG respectively. Supernatant was collected every 2 days and assayed using an ELISA kit.
HBcAg staining was also performed in the experiments, and results were consistent with the ELISA results. […] It was thus speculated that these two truncated forms might have exerted a dominant-negative effect.

SCARF2 gene = assay: SCARF2 expression after transduction of CREBH and truncated forms (mRNA sequencing, quantitative PCR); format: cell-based; conditions: HepG2-NTCP cells transduced
Text: Since the results of the infection occurred after the transduction of truncated forms of CREBH indicate that the transcriptional activation function of CREBH is necessary for enhancement of the infection, and the shortest functional truncated form CREBH-122-318 is localized on the nucleus, it is inferred that it is by activating a downstream gene that CREBH enhances HBV entry. In order to more accurately determine the downstream major gene, HepG2-NTCP cells transduced with CREBH, CREBH-122, CREBH-307, CREBH-122-318, CREBH-211-318, PWPI-B, and PMM were selected and used for transcriptome sequencing experiments. Meanwhile, CREBH siRNA-2 was selected and used to knock down CREBH in HepG2-NTCP cells. siNC was used as a negative control. Changes in transcriptomes were detected.
The same conclusion was also made from subsequent experiments using quantitative PCR, and the expression levels of SCARF2 were completely consistent with the enhancement effects of CREBH and its various truncated forms on HBV infection observed in the previous text.

APOA4 gene = assay: relative expression of APOA4 after transduction of truncated forms into HepG2-NTCP cells; format: cell-based
Procedure: In order to detect whether each truncated form still had transcriptional activation ability, experiments were conducted by using the activation of APOA4 gene reported in the literature as an indicator of the transcriptional activation ability of CREBH. After the truncated forms were transduced into HepG2-NTCP cells, relative expression of APOA4 was detected. […] CREBH-C also had relatively high activation efficiency, which however was about ⅓ of the activation efficiency of the full-length CREBH.

NTCP mRNA = NTCP mRNA level under CREBH overexpression; format: cell-based; conditions: overexpression in HepG2-NTCP
Text: NTCP is a key receptor in HBV infection and can directly bind to the PreS1 region on the virus. Many factors capable of affecting HBV infection may indirectly affect HBV infection by affecting the expression level or cellular localization of NTCP. In order to detect whether CREBH enhances HBV infection by affecting NTCP, changes in NTCP mRNA level under the condition of overexpressing CREBH was first detected.

HBV [4] = assay: cDNA library screening by HBV infection of HepG2-NTCP cells in 1% PEG; format: cell-based
Procedure: The cDNA library was prepared by packaging lentivirus, with HepG2-NTCP cells expressing the cDNA clones being packaged therein. After 24 hours, infection was conducted with HBV at a same tier in the presence of 1% PEG. Culture supernatant was collected every 2 days, and was tested with HBeAg and HBsAg kits.

hepatitis D virus (HDV) = assay: HDV infection; format: cell-based
Text: This phenomenon can be explained and discussed from the following aspects. First, the present invention finds that HDV infection is more dependent on the expression of NTCP on the cell membrane than HBV infection, and HDV infection can occur more easily at a low PEG concentration. Although HDV and HBV have the same viral outer membrane, HDV can be assembled in the absence of L protein. […] Second, SCARF2 contains, at its C-terminus, a signal that can lead to its localization to the nuclear membrane, and a mutant with deletion of the C-terminal Proline-rich domain cannot enhance the infection.

HBV [5] = assay: HBV infection of HepG2-NTCP cells overexpressing SCARF2; format: cell-based
Procedure: FIGS. 8A, 8B, and 8C are schematic diagrams showing the effects of transduction of SCARF2 on infection in Example 6. (FIG. 8A) HepG2-NTCP cells were transduced with SCARF2, CREBH-122, or PWPI, and then infected with HBV in the presence of 1% PEG. (FIG. 8B) HepG2-NTCP cells were transduced with SCARF2, CREBH-122, or PWPI, and then infected with HBV in the presence of 5% PEG. (FIG. 8C) Nuclear and cytoplasmic fractions of the cells at 0 hour, 6 hours, 24 hours, and 72 hours after infection were isolated, and content of HBV DNA in each of the fractions was detected by southern-blot.
In the present invention, SCARF2 was first overexpressed in HepG2-NTCP cell line to test the effects of SCARF2 on HBV infection. […] Meanwhile, from HepG2-NTCP cell line stably expressing SCARF2, HBV DNA was isolated for analysis from the cytoplasm and the nucleus at different time points of HBV infection.

[6] = HepG2-NTCP stably expressing SCARF2, southern-blot

Molecule | HBV infection efficiency (ELISA) (HBV [3]) | expression of SCARF2 (SCARF2 gene) | activation of APOA4 gene (relative expression) (APOA4 gene) | NTCP mRNA level (NTCP mRNA) | HDV infection (hepatitis D virus (HDV)) | also measured
SCARF2 EGF4-6 protein (from UniProt Q96GP6 183-270) (Fc fusion) |  |  |  |  |  | koff [1]: 0.000289 s⁻¹; kon [1]: 4970 M⁻¹ s⁻¹; Kd [2]: 58 nM
CC[C@H](C)[C@H](NC(=O)CNC(=O)[C@H](CCC(N)=O)NC(=O)[C@H](C)NC(=O)[C@@H](N)CCC(N)=O)C(=O)N[C@@H](CC(C)C)C(=O)N[C@@H](CCC(N)=O)C(=O)N[C@H](C(=O)N[C@@H](CC(C)C)C(=O)N1CCC[C@H]1C(=O)N[C@@H](C)C(=O)N[C@@H](CC(N)=O)C(=O)N1CCC[C@H]1C(=O)N1CCC[C@H]1C(=O)N1CCC[C@H]1C(=O)N[C@@H](C)C(=O)N[C@@H](CO)C(=O)N[C@H](C(=O)N[C@@H](CC(N)=O)C(=O)N[C@@H](CCCNC(=N)N)C(=O)N[C@@H](CCC(N)=O)C(=O)N[C@@H](CO)C(=O)NCC(=O)N[C@@H](CCCNC(=N)N)C(=O)N[C@@H](CCC(N)=O)C(=O)N1CCC[C@H]1C(=O)N[C@H](C(=O)N1CCC[C@H]1C(=O)N[C@@H](CC(C)C)C(=O)N[C@@H](CO)C(=O)N1CCC[C@H]1C(=O)N1CCC[C@H]1C(=O)N[C@@H](CC(C)C)C(=O)N[C@@H](CCCNC(=N)N)C(=O)N[C@@H](CC(N)=O)C(=O)N[C@H](C(=O)N[C@@H](Cc1c[nH]cn1)C(=O)N1CCC[C@H]1C(=O)N[C@@H](CCC(N)=O)C(=O)N[C@@H](C)C(=O)O)[C@@H](C)O)[C@@H](C)O)[C@@H](C)O)[C@@H](C)O [peptide^69-108] |  |  |  |  |  | binding to SCARF2 EGF4-6 proteins (SCARF2 EGF4-6 proteins): specifically bound
CREBH-122-318: truncated form of CREBH, residues 122-318, SEQ ID NO:3 (protein) MCLSYHPGNSCSTTTPGPVIQVPEASVTIDLEMWSPGGRICAEKPADPVDLSPRCNLTVKDLLLSGSSGDLQQHHLGASYLLRPGAGHCQELVLTEDEKKLLAKEGITLPTQLPLTKYEERVLKKIRRKIRNKQSAQESRKKKKEYIDGLETRMSACTAQNQELQRKVLHLEKQNLSLLEQLKKLQAIVVQSTSKSA | increase the infection efficiency | significantly up-regulates SCARF2 | capable of activating APOA4 gene to some extent | slightly down-regulated |  | 
CREBH-211-318: truncated form of CREBH, residues 211-318, SEQ ID NO:4, expresses only the bZIP domain (protein) QELVLTEDEKKLLAKEGITLPTQLPLTKYEERVLKKIRRKIRNKQSAQESRKKKKEYIDGLETRMSACTAQNQELQRKVLHLEKQNLSLLEQLKKLQAIVVQSTSKSA |  | does not lead to a change in SCARF2 expression |  |  |  | HBV infection (HBcAg staining, consistent with ELISA) (HBV [3]): to some certain extent inhibited the infection
CREBH: cAMP-responsive element-binding protein, hepatocyte specific; SEQ ID NO:1; expressed by lentiviral transduction (protein, listed as Homo sapiens) MNTDLAAGKMASAACSMDPIDSFELLDLLFDRQDGILRHVELGEGWGHVKDQQVLPNPDSDDFLSSILGSGDSLPSSPLWSPEGSDSGISEDLPSDPQDTPPRSGPATSPAGCHPAQPGKGPCLSYHPGNSCSTTTPGPVIQVPEASVTIDLEMWSPGGRICAEKPADPVDLSPRCNLTVKDLLLSGSSGDLQQHHLGASYLLRPGAGHCQELVLTEDEKKLLAKEGITLPTQLPLTKYEERVLKKIRRKIRNKQSAQESRKKKKEYIDGLETRMSACTAQNQELQRKVLHLEKQNLSLLEQLKKLQAIVVQSTSKSAQTGTCVAVLLLSFALIILPSISPFGPNKTESPGDFAPVRVFSRTLHNDAASRVAADAVPGSEAPGPRPEADTTREESPGSPGADWGFQDTANLTNSTEELDNATLVLRNATEGLGQVALLDWVAPGPSTGSGRAGLEAAGDEL | increase the infection efficiency | can up-regulate the expression of SCARF2 gene, but not to a very significant level | strongest activation effect | slightly down-regulated | neither of CREBH and SCARF2 can enhance | number of HBcAg-positive cells (HBV [4]; HBcAg staining): remarkably increases; HBV infection (HBeAg, HBsAg in supernatant) (HBV [4]; HepG2-NTCP cells expressing cDNA clone, 1% PEG): remarkably enhances HBV infection
SCARF2: Scavenger receptor family F protein, SEQ ID NO:8, overexpressed in HepG2-NTCP cells (protein, listed as Homo sapiens) MEGAGPRGAGPARRRGAGGPPSPLLPSLLLLLLLWMLPDTVAPQELNPRGRNVCRAPGSQVPTCCAGWRQQGDECGIAVCEGNSTCSENEVCVRPGECRCRHGYFGANCDTKCPRQFWGPDCKELCSCHPHGQCEDVTGQCTCHARRWGARCEHACQCQHGTCHPRSGACRCEPGWWGAQCASACYCSATSRCDPQTGACLCHAGWWGRSCNNQCACNSSPCEQQSGRCQCRERTFGARCDRYCQCFRGRCHPVDGTCACEPGYRGKYCREPCPAGFYGLGCRRRCGQCKGQQPCTVAEGRCLTCEPGWNGTKCDQPCATGFYGEGCSHRCPPCRDGHACNHVTGKCTRCNAGWIGDRCETKCSNGTYGEDCAFVCADCGSGHCDFQSGRCLCSPGVHGPHCNVTCPPGLHGADCAQACSCHEDTCDPVTGACHLETNQRKGVMGAGALLVLLVCLLLSLLGCCCACRGKDPTRRPRPRRELSLGRKKAPHRLCGRFSRISMKLPRIPLRRQKLPKVVVAHHDLDNTLNCSFLEPPSGLEQPSPSWSSRASFSSFDTTDEGPVYCVPHEEAPAESRDPEVPTVPAEAPAPSPVPLTTPASAEEAIPLPASSDSERSASSVEGPGGALYARVARREARPARARGEIGGLSLSPSPERRKPPPPDPATKPKVSWIHGKHSAAAAGRAPSPPPPGSEAAPSPSKRKRTPSDKSAHTVEHGSPRTRDPTPRPPGLPEEATALAAPSPPRARARGRGPGLLEPTDAGGPPRSAPEAASMLAAELRGKTRSLGRAEVALGAQGPREKPAPPQKAKRSVPPASPARAPPATETPGPEKAATDLPAPETPRKKTPIQKPPRKKSREAAGELGRAGAPTL |  |  |  |  | neither of CREBH and SCARF2 can enhance | HBV infection (HBV [5]; 1% PEG or 5% PEG): can enhance HBV infection; HBV DNA in fractions of the cytoplasm (HBV [5]; [6]): slightly increased; rcDNA and cccDNA in fractions of the nucleus (HBV [5]; [6]): significantly increased
